Assay results reported in ChEMBL document CHEMBL3425448, “Synthesis of hydrolysis-resistant pyridoxal 5'-phosphate analogs and their biochemical and X-ray crystallographic characterization with the pyridoxal phosphatase chronophin” (Bioorg Med Chem, 2015).

Columns and labels:
[1] = compound: Cc1ncc(/C=C/P(=O)(O)O)c(C=O)c1O; test: (§1) Inhibition of recombinant mouse brain PDXP-mediated pyridoxal 5' phosphate hydrolysis expressed in Escherichia coli BL21 (DE3) cells assessed as ratio of enzyme Kcat/Km at 0.5 mM preincubated for 4 mins followed by substrate addition measured after 2 mins
[2] = compound: Cc1ncc(CCP(=O)(O)O)c(CO)c1O; test: as §1
[3] = compound: Cc1ncc(/C=C/P(=O)(O)O)c(CO)c1O; test: as §1
[4] = compound: Cc1ncc(CCP(=O)(O)O)c(C=O)c1O; test: as §1
[5] = compound: Cc1ncc(/C=C/P(=O)(O)O)c(C=O)c1O; test: (§2) Inhibition of recombinant mouse brain PDXP-mediated pyridoxal 5' phosphate hydrolysis expressed in Escherichia coli BL21 (DE3) cells assessed as ratio of enzyme Kcat/Km at 1 mM preincubated for 4 mins followed by substrate addition measured after 2 mins
[6] = compound: Cc1ncc(CCP(=O)(O)O)c(CO)c1O; test: as §2
[7] = compound: Cc1ncc(/C=C/P(=O)(O)O)c(CO)c1O; test: as §2
[8] = compound: Cc1ncc(CCP(=O)(O)O)c(C=O)c1O; test: as §2
[9] = compound: Cc1ncc(/C=C/P(=O)(O)O)c(C=O)c1O; test: (§3) Inhibition of recombinant mouse brain PDXP-mediated pyridoxal 5' phosphate hydrolysis expressed in Escherichia coli BL21 (DE3) cells assessed as enzyme Kcat at 0.5 mM preincubated for 4 mins followed by substrate addition measured after 2 mins
[10] = compound: Cc1ncc(CCP(=O)(O)O)c(CO)c1O; test: as §3
[11] = compound: Cc1ncc(/C=C/P(=O)(O)O)c(CO)c1O; test: as §3
[12] = compound: Cc1ncc(CCP(=O)(O)O)c(C=O)c1O; test: as §3
[13] = compound: Cc1ncc(/C=C/P(=O)(O)O)c(C=O)c1O; test: (§4) Inhibition of recombinant mouse brain PDXP-mediated pyridoxal 5' phosphate hydrolysis expressed in Escherichia coli BL21 (DE3) cells assessed as enzyme Kcat at 1 mM preincubated for 4 mins followed by substrate addition measured after 2 mins
[14] = compound: Cc1ncc(CCP(=O)(O)O)c(CO)c1O; test: as §4
[15] = compound: Cc1ncc(/C=C/P(=O)(O)O)c(CO)c1O; test: as §4
[16] = compound: Cc1ncc(CCP(=O)(O)O)c(C=O)c1O; test: as §4
[17] = compound: Cc1ncc(/C=C/P(=O)(O)O)c(C=O)c1O; test: (§5) Inhibition of recombinant mouse brain PDXP-mediated pyridoxal 5' phosphate hydrolysis expressed in Escherichia coli BL21 (DE3) cells assessed as enzyme Km at 0.1 mM preincubated for 4 mins followed by substrate addition measured after 2 mins
[18] = compound: Cc1ncc(CCP(=O)(O)O)c(CO)c1O; test: as §5
[19] = compound: Cc1ncc(/C=C/P(=O)(O)O)c(CO)c1O; test: as §5
[20] = compound: Cc1ncc(CCP(=O)(O)O)c(C=O)c1O; test: as §5
[21] = compound: Cc1ncc(/C=C/P(=O)(O)O)c(C=O)c1O; test: (§6) Inhibition of recombinant mouse brain PDXP-mediated pyridoxal 5' phosphate hydrolysis expressed in Escherichia coli BL21 (DE3) cells assessed as enzyme Vmax at 0.5 mM preincubated for 4 mins followed by substrate addition measured after 2 mins
[22] = compound: Cc1ncc(CCP(=O)(O)O)c(CO)c1O; test: as §6
[23] = compound: Cc1ncc(/C=C/P(=O)(O)O)c(CO)c1O; test: as §6
[24] = compound: Cc1ncc(CCP(=O)(O)O)c(C=O)c1O; test: as §6
[25] = compound: Cc1ncc(/C=C/P(=O)(O)O)c(C=O)c1O; test: (§7) Inhibition of recombinant mouse brain PDXP-mediated pyridoxal 5' phosphate hydrolysis expressed in Escherichia coli BL21 (DE3) cells assessed as enzyme Vmax at 0.1 mM preincubated for 4 mins followed by substrate addition measured after 2 mins
[26] = compound: Cc1ncc(CCP(=O)(O)O)c(CO)c1O; test: as §7
[27] = compound: Cc1ncc(/C=C/P(=O)(O)O)c(CO)c1O; test: as §7
[28] = compound: Cc1ncc(CCP(=O)(O)O)c(C=O)c1O; test: as §7
[29] = compound: Cc1ncc(/C=C/P(=O)(O)O)c(C=O)c1O; test: (§8) Inhibition of recombinant mouse brain PDXP-mediated pyridoxal 5' phosphate hydrolysis expressed in Escherichia coli BL21 (DE3) cells assessed as enzyme Kcat at 0.1 mM preincubated for 4 mins followed by substrate addition measured after 2 mins
[30] = compound: Cc1ncc(CCP(=O)(O)O)c(CO)c1O; test: as §8
[31] = compound: Cc1ncc(/C=C/P(=O)(O)O)c(CO)c1O; test: as §8
[32] = compound: Cc1ncc(CCP(=O)(O)O)c(C=O)c1O; test: as §8
[33] = compound: Cc1ncc(/C=C/P(=O)(O)O)c(C=O)c1O; test: (§9) Inhibition of recombinant mouse brain PDXP-mediated pyridoxal 5' phosphate hydrolysis expressed in Escherichia coli BL21 (DE3) cells assessed as enzyme Vmax at 1 mM preincubated for 4 mins followed by substrate addition measured after 2 mins
[34] = compound: Cc1ncc(CCP(=O)(O)O)c(CO)c1O; test: as §9
[35] = compound: Cc1ncc(/C=C/P(=O)(O)O)c(CO)c1O; test: as §9
[36] = compound: Cc1ncc(CCP(=O)(O)O)c(C=O)c1O; test: as §9
[37] = compound: Cc1ncc(/C=C/P(=O)(O)O)c(C=O)c1O; test: (§10) Inhibition of recombinant mouse brain PDXP-mediated pyridoxal 5' phosphate hydrolysis expressed in Escherichia coli BL21 (DE3) cells assessed as ratio of enzyme Kcat/Km at 2 mM preincubated for 4 mins followed by substrate addition measured after 2 mins
[38] = compound: Cc1ncc(CCP(=O)(O)O)c(CO)c1O; test: as §10
[39] = compound: Cc1ncc(/C=C/P(=O)(O)O)c(CO)c1O; test: as §10
[40] = compound: Cc1ncc(CCP(=O)(O)O)c(C=O)c1O; test: as §10
[41] = compound: Cc1ncc(/C=C/P(=O)(O)O)c(C=O)c1O; test: (§11) Inhibition of recombinant mouse brain PDXP-mediated pyridoxal 5' phosphate hydrolysis expressed in Escherichia coli BL21 (DE3) cells assessed as enzyme Kcat at 2 mM preincubated for 4 mins followed by substrate addition measured after 2 mins
[42] = compound: Cc1ncc(CCP(=O)(O)O)c(CO)c1O; test: as §11
[43] = compound: Cc1ncc(/C=C/P(=O)(O)O)c(CO)c1O; test: as §11
[44] = compound: Cc1ncc(CCP(=O)(O)O)c(C=O)c1O; test: as §11
[45] = compound: Cc1ncc(/C=C/P(=O)(O)O)c(C=O)c1O; test: (§12) Inhibition of recombinant mouse brain PDXP-mediated pyridoxal 5' phosphate hydrolysis expressed in Escherichia coli BL21 (DE3) cells assessed as enzyme Km at 1 mM preincubated for 4 mins followed by substrate addition measured after 2 mins
[46] = compound: Cc1ncc(CCP(=O)(O)O)c(CO)c1O; test: as §12
[47] = compound: Cc1ncc(/C=C/P(=O)(O)O)c(CO)c1O; test: as §12
[48] = compound: Cc1ncc(CCP(=O)(O)O)c(C=O)c1O; test: as §12
[49] = compound: Cc1ncc(/C=C/P(=O)(O)O)c(C=O)c1O; test: (§13) Inhibition of recombinant mouse brain PDXP-mediated pyridoxal 5' phosphate hydrolysis expressed in Escherichia coli BL21 (DE3) cells assessed as enzyme Vmax at 2 mM preincubated for 4 mins followed by substrate addition measured after 2 mins
[50] = compound: Cc1ncc(CCP(=O)(O)O)c(CO)c1O; test: as §13
[51] = compound: Cc1ncc(/C=C/P(=O)(O)O)c(CO)c1O; test: as §13
[52] = compound: Cc1ncc(CCP(=O)(O)O)c(C=O)c1O; test: as §13
[53] = compound: Cc1ncc(/C=C/P(=O)(O)O)c(C=O)c1O; test: (§14) Inhibition of recombinant mouse brain PDXP-mediated pyridoxal 5' phosphate hydrolysis expressed in Escherichia coli BL21 (DE3) cells assessed as ratio of enzyme Kcat/Km at 0.1 mM preincubated for 4 mins followed by substrate addition measured after 2 mins
[54] = compound: Cc1ncc(CCP(=O)(O)O)c(CO)c1O; test: as §14
[55] = compound: Cc1ncc(/C=C/P(=O)(O)O)c(CO)c1O; test: as §14
[56] = compound: Cc1ncc(CCP(=O)(O)O)c(C=O)c1O; test: as §14
[57] = compound: Cc1ncc(/C=C/P(=O)(O)O)c(C=O)c1O; test: (§15) Inhibition of recombinant mouse brain PDXP-mediated pyridoxal 5' phosphate hydrolysis expressed in Escherichia coli BL21 (DE3) cells assessed as enzyme Km at 0.5 mM preincubated for 4 mins followed by substrate addition measured after 2 mins
[58] = compound: Cc1ncc(CCP(=O)(O)O)c(CO)c1O; test: as §15
[59] = compound: Cc1ncc(/C=C/P(=O)(O)O)c(CO)c1O; test: as §15
[60] = compound: Cc1ncc(CCP(=O)(O)O)c(C=O)c1O; test: as §15
[61] = compound: Cc1ncc(/C=C/P(=O)(O)O)c(C=O)c1O; test: (§16) Inhibition of recombinant mouse brain PDXP-mediated pyridoxal 5' phosphate hydrolysis expressed in Escherichia coli BL21 (DE3) cells assessed as enzyme Km at 2 mM preincubated for 4 mins followed by substrate addition measured after 2 mins
[62] = compound: Cc1ncc(CCP(=O)(O)O)c(CO)c1O; test: as §16
[63] = compound: Cc1ncc(/C=C/P(=O)(O)O)c(CO)c1O; test: as §16
[64] = compound: Cc1ncc(CCP(=O)(O)O)c(C=O)c1O; test: as §16

B1: Chronophin (Mus musculus), P60487 (protein)
chain: MARCERLRGAALRDVLGQAQGVLFDCDGVLWNGERIVPGAPELLQRLARAGKNTLFVSNNSRRARPELALRFARLGFAGLRAEQLFSSALCAARLLRQRLSGPPDASGAVFVLGGEGLRAELRAAGLRLAGDPGEDPRVRAVLVGYDEQFSFSRLTEACAHLRDPDCLLVATDRDPWHPLSDGSRTPGTGSLAAAVETASGRQALVVGKPSPYMFQCITEDFSVDPARTLMVGDRLETDILFGHRCGMTTVLTLTGVSSLEEAQAYLTAGQRDLVPHYYVESIADLMEGLED
kcat/Km [1]: 0.9 ×10⁴ /s/M | kcat/Km [2]: 2.4 ×10⁴ /s/M | kcat/Km [3]: 2.2 ×10⁴ /s/M | kcat/Km [4]: 1 ×10⁴ /s/M | kcat/Km [5]: 0.5 ×10⁴ /s/M | kcat/Km [6]: 1.9 ×10⁴ /s/M | kcat/Km [7]: 1.5 ×10⁴ /s/M | kcat/Km [8]: 0.7 ×10⁴ /s/M | kcat [9]: 1.6 s⁻¹ | kcat [10]: 2 s⁻¹ | kcat [11]: 1.7 s⁻¹ | kcat [12]: 1.7 s⁻¹ | kcat [13]: 1.2 s⁻¹ | kcat [14]: 1.8 s⁻¹ | kcat [15]: 1.7 s⁻¹ | kcat [16]: 1.4 s⁻¹ | Km [17]: 78 µM | Km [18]: 59 µM | Km [19]: 44 µM | Km [20]: 72 µM | Vmax [21]: 2990 nmol/min/mg | Vmax [22]: 3680 nmol/min/mg | Vmax [23]: 3230 nmol/min/mg | Vmax [24]: 3280 nmol/min/mg | Vmax [25]: 3580 nmol/min/mg | Vmax [26]: 3740 nmol/min/mg | Vmax [27]: 3300 nmol/min/mg | Vmax [28]: 3590 nmol/min/mg | kcat [29]: 1.9 s⁻¹ | kcat [30]: 2 s⁻¹ | kcat [31]: 1.8 s⁻¹ | kcat [32]: 1.9 s⁻¹ | Vmax [33]: 2300 nmol/min/mg | Vmax [34]: 3440 nmol/min/mg | Vmax [35]: 3150 nmol/min/mg | Vmax [36]: 2620 nmol/min/mg | kcat/Km [37]: 0.4 ×10⁴ /s/M | kcat/Km [38]: 1.2 ×10⁴ /s/M | kcat/Km [39]: 0.9 ×10⁴ /s/M | kcat/Km [40]: 0.5 ×10⁴ /s/M | kcat [41]: 0.9 s⁻¹ | kcat [42]: 1.7 s⁻¹ | kcat [43]: 1.6 s⁻¹ | kcat [44]: 1.1 s⁻¹ | Km [45]: 248 µM | Km [46]: 98 µM | Km [47]: 112 µM | Km [48]: 197 µM | Vmax [49]: 1640 nmol/min/mg | Vmax [50]: 3150 nmol/min/mg | Vmax [51]: 3070 nmol/min/mg | Vmax [52]: 2130 nmol/min/mg | kcat/Km [53]: 2.4 ×10⁴ /s/M | kcat/Km [54]: 3.3 ×10⁴ /s/M | kcat/Km [55]: 4 ×10⁴ /s/M | kcat/Km [56]: 2.7 ×10⁴ /s/M | Km [57]: 170 µM | Km [58]: 83 µM | Km [59]: 77 µM | Km [60]: 170 µM | Km [61]: 224 µM | Km [62]: 136 µM | Km [63]: 181 µM | Km [64]: 246 µM
